Key:
nfP2X7 CAR 1 [1] = target: T1, nfP2X7 CAR 1; experiment: flow cytometry, nfP2X7 CAR T cells (EGFR+), anti-His-FITC detection
T1 construct: Expressed on T cells with truncated EGFR as marker gene; also called anti-nfP2X7 receptor CAR 1; nfP2X7 targeted CAR on EGFR+ T cells
Method: (§1) nfP2X₇ CAR T cells were incubated with different BRiDGE variants at saturating concentrations. […] The MFI intensity correlates with the number of secondary bound antibodies bound to the BRiDGEs that are only detected if they are bound to the CAR T cells. EGFR was used as a marker gene to detect the CAR expression. Thus, the EGFR+ T cell population was defined as the CAR expressing cells and the EGFR− T cell population was defined as the CAR negative subset. MFI: median fluorescence intensity. EGFR: epidermal growth factor receptor. BLItz: Bio-Layer interferometry (BLI) technology using HIS-tag identification tips. HIS-tag MFI Ratio: relative index that is calculated by the testing condition MFI divided by the control MFI, which corresponds to the MFI measured on EGFR+ T cells (defined as CAR positive cells) divided by the MFI measured on the EGFR− T cells (defined as CAR negative cells). […] The higher the MFIR, the stronger the binding.

nfP2X7 CAR 1 [2] = target: T1, nfP2X7 CAR 1; experiment: flow cytometry, CAR T cells, anti-His-FITC, EGFR+ MFI over background 0.4
Method: as §1

CD33 [3] = target: T2, CD33 (UniProt P20138 18-364, limits assumed); experiment: flow cytometry, MOLM-13 cells, anti-His-FITC detection, ratio to no bridge
T2 construct: whole, on cells; also called Siglec-3; CD33 on MOLM-13 cells
T2 sequence (P20138 18-364 limits assumed): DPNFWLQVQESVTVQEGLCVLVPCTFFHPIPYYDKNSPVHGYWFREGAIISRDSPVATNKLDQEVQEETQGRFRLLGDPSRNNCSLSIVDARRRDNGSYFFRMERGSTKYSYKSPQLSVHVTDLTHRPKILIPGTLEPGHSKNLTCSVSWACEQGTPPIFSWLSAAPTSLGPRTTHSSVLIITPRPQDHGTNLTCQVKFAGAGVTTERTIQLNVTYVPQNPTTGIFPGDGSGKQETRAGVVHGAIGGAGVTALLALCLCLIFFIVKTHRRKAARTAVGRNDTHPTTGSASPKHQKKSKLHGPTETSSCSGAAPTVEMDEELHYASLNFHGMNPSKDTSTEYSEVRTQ
Method: (§2) MOLM-13 cells were incubated with different CD33 BRIDGE variants at saturating concentrations. […] The MFI intensity correlates with the number of secondary antibodies bound to the CD33 BRIDGE variants that are only detected if they are bound to the MOLM-13 cells. MFI: median fluorescence intensity. BLItz: Bio-Layer interferometry (BLI) technology using HIS-tag identification tips. […] The higher the MFIR, the stronger the binding.

CD33 [4] = target: T2, CD33; experiment: flow cytometry, MOLM-13 cells, anti-His-FITC detection
Method: as §2

nfP2X7 CAR 1 [5] = target: T1, nfP2X7 CAR 1; experiment: flow cytometry, CAR T cells, anti-His-FITC, EGFR+ over EGFR- cells
Method: as §1

MFI HisTag FITC in EGFR+ Population (nfP2X7 CAR 1 [1])	HisTag MFI Ratio (background 0.4) (nfP2X7 CAR 1 [2])	MFIR HisTag FITC (CD33 [3])	MFI HisTag FITC (CD33 [4])	HisTag MFI Ratio of EGFR+/EGFR- (nfP2X7 CAR 1 [5])	Binder
1.2	3	11	7.39	2.7	CD33 BRIDGE variant B11 (Fab, Lintuzumab-based Fab bridging molecule) light: GHNYTTRNILPGLNITSTFHKTSGSGKGSEPKSSDKTHTGSDIQMTQSPSSLSASVGDRVTITCRASESVDNYGISFMNWFQQKPGKAPKLLIYAASNQGSGVPSRFSGSGSGTDFTLTISSLQPDDFATYYCQQSKEVPWTFGQGTKVEIKRTVAAPSVFIFPPSDEQLKSGTASVVCLLNNFYPREAKVQWKVDNALQSGNSQESVTEQDSKDSTYSLSSTLTLSKADYEKHKVYACEVTHQGLSSPVTKSFNRGECHHHHHH heavy: QVQLVQSGAEVKKPGSSVKVSCKASGYTFTDYNMHWVRQAPGQGLEWIGYIYPYNGGTGYNQKFKSKATITADESTNTAYMELSSLRSEDTAVYYCARGRPAMDYWGQGTLVTVSSASTKGPSVFPLAPSSKSTSGGTAALGCLVKDYFPEPVTVSWNSGALTSGVHTFPAVLQSSGLYSLSSVVTVPSSSLGTQTYICNVNHKPSNTKVDKKVEPKSCHHHHHH
1.99	5	10.2	6.86	3.5	CD33 BRIDGE variant B10 (Fab, Lintuzumab-based Fab bridging molecule) light: GHNYTTRNILPGLNITSTFHKTSGSGKEPKSSDKTHTGSDIQMTQSPSSLSASVGDRVTITCRASESVDNYGISFMNWFQQKPGKAPKLLIYAASNQGSGVPSRFSGSGSGTDFTLTISSLQPDDFATYYCQQSKEVPWTFGQGTKVEIKRTVAAPSVFIFPPSDEQLKSGTASVVCLLNNFYPREAKVQWKVDNALQSGNSQESVTEQDSKDSTYSLSSTLTLSKADYEKHKVYACEVTHQGLSSPVTKSFNRGECHHHHHH heavy: QVQLVQSGAEVKKPGSSVKVSCKASGYTFTDYNMHWVRQAPGQGLEWIGYIYPYNGGTGYNQKFKSKATITADESTNTAYMELSSLRSEDTAVYYCARGRPAMDYWGQGTLVTVSSASTKGPSVFPLAPSSKSTSGGTAALGCLVKDYFPEPVTVSWNSGALTSGVHTFPAVLQSSGLYSLSSVVTVPSSSLGTQTYICNVNHKPSNTKVDKKVEPKSCHHHHHH
1.45	3.6	8.24	5.52	3	CD33 BRIDGE variant B7 (Fab, V domains shown, Lintuzumab-based Fab bridging molecule) VH: QVQLVQSGAEVKKPGSSVKVSCKASGYTFTDYNMHWVRQAPGQGLEWIGYIYPYNGGTGYNQKFKSKATITADESTNTAYMELSSLRSEDTAVYYCARGRPAMDYWGQGTLVTVSS VL: DIQMTQSPSSLSASVGDRVTITCRASESVDNYGISFMNWFQQKPGKAPKLLIYAASNQGSGVPSRFSGSGSGTDFTLTISSLQPDDFATYYCQQSKEVPWTFGQGTKVEIKR

Further lines, the binder ahead of its results:

Binder	MFI HisTag FITC in EGFR+ Population (nfP2X7 CAR 1 [1])	HisTag MFI Ratio (background 0.4) (nfP2X7 CAR 1 [2])	MFIR HisTag FITC (CD33 [3])	MFI HisTag FITC (CD33 [4])	HisTag MFI Ratio of EGFR+/EGFR- (nfP2X7 CAR 1 [5])
CD33 BRIDGE variant B4 (Fab, Lintuzumab-based Fab bridging molecule) light: GHNYTTRNILPGLNITSTFHKTSGSGKEPKSSDKTHTDIQMTQSPSSLSASVGDRVTITCRASESVDNYGISFMNWFQQKPGKAPKLLIYAASNQGSGVPSRFSGSGSGTDFTLTISSLQPDDFATYYCQQSKEVPWTFGQGTKVEIKRTVAAPSVFIFPPSDEQLKSGTASVVCLLNNFYPREAKVQWKVDNALQSGNSQESVTEQDSKDSTYSLSSTLTLSKADYEKHKVYACEVTHQGLSSPVTKSFNRGECHHHHHH heavy: QVQLVQSGAEVKKPGSSVKVSCKASGYTFTDYNMHWVRQAPGQGLEWIGYIYPYNGGTGYNQKFKSKATITADESTNTAYMELSSLRSEDTAVYYCARGRPAMDYWGQGTLVTVSSASTKGPSVFPLAPSSKSTSGGTAALGCLVKDYFPEPVTVSWNSGALTSGVHTFPAVLQSSGLYSLSSVVTVPSSSLGTQTYICNVNHKPSNTKVDKKVEPKSCHHHHHH	1.68	4.2	8.25	5.53	3.1
CD33 BRIDGE variant B5 (Fab, Lintuzumab-based Fab bridging molecule) light: GHNYTTRNILPGLNITSTFHKTSGSGKGSEPKSSDKTHTDIQMTQSPSSLSASVGDRVTITCRASESVDNYGISFMNWFQQKPGKAPKLLIYAASNQGSGVPSRFSGSGSGTDFTLTISSLQPDDFATYYCQQSKEVPWTFGQGTKVEIKRTVAAPSVFIFPPSDEQLKSGTASVVCLLNNFYPREAKVQWKVDNALQSGNSQESVTEQDSKDSTYSLSSTLTLSKADYEKHKVYACEVTHQGLSSPVTKSFNRGECHHHHHH heavy: QVQLVQSGAEVKKPGSSVKVSCKASGYTFTDYNMHWVRQAPGQGLEWIGYIYPYNGGTGYNQKFKSKATITADESTNTAYMELSSLRSEDTAVYYCARGRPAMDYWGQGTLVTVSSASTKGPSVFPLAPSSKSTSGGTAALGCLVKDYFPEPVTVSWNSGALTSGVHTFPAVLQSSGLYSLSSVVTVPSSSLGTQTYICNVNHKPSNTKVDKKVEPKSCHHHHHH	1.4	3.5	8.75	5.86	2.8
CD33 BRIDGE variant B6 (Fab, Lintuzumab-based Fab bridging molecule) light: GHNYTTRNILPGLNITSTFHKTSGSGKGGGSEPKSSDKTHTDIQMTQSPSSLSASVGDRVTITCRASESVDNYGISFMNWFQQKPGKAPKLLIYAASNQGSGVPSRFSGSGSGTDFTLTISSLQPDDFATYYCQQSKEVPWTFGQGTKVEIKRTVAAPSVFIFPPSDEQLKSGTASVVCLLNNFYPREAKVQWKVDNALQSGNSQESVTEQDSKDSTYSLSSTLTLSKADYEKHKVYACEVTHQGLSSPVTKSFNRGECHHHHHH heavy: QVQLVQSGAEVKKPGSSVKVSCKASGYTFTDYNMHWVRQAPGQGLEWIGYIYPYNGGTGYNQKFKSKATITADESTNTAYMELSSLRSEDTAVYYCARGRPAMDYWGQGTLVTVSSASTKGPSVFPLAPSSKSTSGGTAALGCLVKDYFPEPVTVSWNSGALTSGVHTFPAVLQSSGLYSLSSVVTVPSSSLGTQTYICNVNHKPSNTKVDKKVEPKSCHHHHHH	1.96	4.9	9.33	6.25	3.4
CD33 BRIDGE variant B1 (Fab, V domains shown, Lintuzumab-based Fab bridging molecule) VH: QVQLVQSGAEVKKPGSSVKVSCKASGYTFTDYNMHWVRQAPGQGLEWIGYIYPYNGGTGYNQKFKSKATITADESTNTAYMELSSLRSEDTAVYYCARGRPAMDYWGQGTLVTVSS VL: DIQMTQSPSSLSASVGDRVTITCRASESVDNYGISFMNWFQQKPGKAPKLLIYAASNQGSGVPSRFSGSGSGTDFTLTISSLQPDDFATYYCQQSKEVPWTFGQGTKVEIKR	1.08	2.7	9.12	6.11	2.5
CD33 BRIDGE variant B3 (Fab, V domains shown, Lintuzumab-based Fab bridging molecule) VH: QVQLVQSGAEVKKPGSSVKVSCKASGYTFTDYNMHWVRQAPGQGLEWIGYIYPYNGGTGYNQKFKSKATITADESTNTAYMELSSLRSEDTAVYYCARGRPAMDYWGQGTLVTVSS VL: DIQMTQSPSSLSASVGDRVTITCRASESVDNYGISFMNWFQQKPGKAPKLLIYAASNQGSGVPSRFSGSGSGTDFTLTISSLQPDDFATYYCQQSKEVPWTFGQGTKVEIKR	1.04	2.6	10.1	6.76	2.4
CD33 BRIDGE variant B2 (Fab, V domains shown, Lintuzumab-based Fab bridging molecule) VH: QVQLVQSGAEVKKPGSSVKVSCKASGYTFTDYNMHWVRQAPGQGLEWIGYIYPYNGGTGYNQKFKSKATITADESTNTAYMELSSLRSEDTAVYYCARGRPAMDYWGQGTLVTVSS VL: DIQMTQSPSSLSASVGDRVTITCRASESVDNYGISFMNWFQQKPGKAPKLLIYAASNQGSGVPSRFSGSGSGTDFTLTISSLQPDDFATYYCQQSKEVPWTFGQGTKVEIKR	1.11	2.8	8.34	5.59	2.5

— patent US20250281611A1 (BIOSCEPTRE AUST, published 2025)
